Results on three molecules are retold here after US20180230457A1 (published 2018).

The Kd is the equilibrium constant for the complex coming apart. A higher Kd goes with weaker binding.

Residue numbers refer to the chain shown, from its start.

Assay [1] concerns the target T1, bovine pancreatic RNase A (bovine, UniProt P61823 27-150).
T1 construct: mature; Commercial purified protein; Used unmodified in ITC and as plate coat; biotinylated only for phage selection
T1 sequence (looked up): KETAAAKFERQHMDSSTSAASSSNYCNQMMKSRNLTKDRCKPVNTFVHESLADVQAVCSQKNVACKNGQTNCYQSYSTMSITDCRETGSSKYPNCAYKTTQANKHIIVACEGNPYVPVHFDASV
Briefly: ITC, 25 C, no metal. Here is the method: (§1) ITC experiments were performed using a MicroCal VP-ITC (MicroCal, LLC, Northampton, Mass.). All experiments were performed at 25° C. Proteins were dialyzed against the desired experimental buffer, which included PBS (20 mM NaPhosphate, 150 mM NaCl pH 7.4), TBS (20 mM Tris-HCl, 150 mM NaCl pH 7.4) and TBS-E (20 mM Tris, 150 mM NaCl, 1 mM EDTA, pH 7.4). For direct titration of NiCl₂ into the VHH-metal variant, concentrations were 2 mM and 200 μM for NiCl2 and VHH, respectively. Based on the observed binding constant, this corresponds to a “c-value” of 6.7, which is within the commonly acceptable range for the accurate determination of binding thermodynamics. For competitive titrations, nickel was included in TBS without EDTA at concentrations ranging from 0-10 mM. Competitive VHH/RNase A titration experiments with a “c” value greater than 10 included protein concentrations ranging from 30 μM to 205 μM. Conditions included a 10-fold higher concentration of titrant (VHH). […] These experiments included using a 100-fold higher concentration of titrant (RNase A) relative to VHH. RNase A concentrations were between 150 μM and 800 μM. […] For nickel/VHH titrations, the titrant nickel was dissolved in the appropriate dialysis buffer at a 10× concentration of the VHH. Experiments typically included 27, 10 μL injections with a 240 second delay between each injection. Dilution titrations indicated the absence of significant heats of dilution, consequently, no background dilution heat subtractions were necessary. The binding parameters (K, ΔH°, ΔS°, and n) were determined using the single site binding model using the ITC add-in in Origin version 7 (MicroCal LLC).
On the technique in general: In ITC the heat of successive injections is recorded.

Assay [2] deals with T1, bovine pancreatic RNase A. Briefly: ITC, 25 C, RNase A binding with 1 mM nickel present. As to the method:
(§2) The binding parameters (K, ΔH°, ΔS°, and n) were determined using the single site binding model using the ITC add-in in Origin version 7 (MicroCal LLC). All titrations indicated a 1:1 interaction with observed stoichiometries equal to 1.0 (within 5%).
(§3) ITC experiments were performed using a MicroCal VP-ITC (MicroCal, LLC, Northampton, Mass.). All experiments were performed at 25° C. Proteins were dialyzed against the desired experimental buffer, which included PBS (20 mM NaPhosphate, 150 mM NaCl pH 7.4), TBS (20 mM Tris-HCl, 150 mM NaCl pH 7.4) and TBS-E (20 mM Tris, 150 mM NaCl, 1 mM EDTA, pH 7.4). For direct titration of NiCl₂ into the VHHmetal variant, concentrations were 2 mM and 200 μM for NiCl₂ and VHH, respectively. Based on the observed binding constant, this corresponds to a “cvalue” of 6.7, which is within the commonly acceptable range for the accurate determination of binding thermodynamics (Tellinghuisen, 2008; Wiseman et al. 1989). For competitive titrations, nickel was included in TBS without EDTA at concentrations ranging from 0-10 mM. Competitive VHH/RNase A titration experiments with a “c” value greater than 10 included protein concentrations ranging from 30 μM to 205 μM. Conditions included a 10-fold higher concentration of titrant (VHH). […] These experiments included using a 100-fold higher concentration of titrant (RNase A) relative to VHH. RNase A concentrations were between 150 μM and 800 μM. Extinction coefficients were determined using values determined by the methods described by Pace, et. al. (1995). […] For nickel/VHH titrations, the titrant nickel was dissolved in the appropriate dialysis buffer at a 10× concentration of the VHH. Experiments typically included 27, 10 μL injections with a 240 second delay between each injection. Dilution titrations indicated the absence of significant heats of dilution, consequently, no background dilution heat subtractions were necessary. The binding parameters (K, ΔH°, ΔS°, and n) were determined using the single site binding model using the ITC add-in in Origin version 7 (MicroCal LLC).

Assay [3] deals with T1, bovine pancreatic RNase A. Briefly: ITC, pH 7.4.
In assay [4] the target is T1, bovine pancreatic RNase A. Briefly: ITC, pH 6, PBS.
In assay [5] the target is T1, bovine pancreatic RNase A. Briefly: ITC, pH 7, PBS.
Assay [6] concerns the target T1, bovine pancreatic RNase A. Briefly: ITC, pH 8, TRIS.
Assay [7] has as its target T1, bovine pancreatic RNase A. Briefly: ITC, pH 7.4, PBS.
The target of assay [8] is T1, bovine pancreatic RNase A. Briefly: ITC, pH 5.5, acetate.
The target in assay [9] is T1, bovine pancreatic RNase A. Briefly: ITC, pH 5, piperazine.
For assay [10], the target named is T1, bovine pancreatic RNase A. Briefly: ITC, pH profile 8.0 to 4.5.
For assay [11], the target named is T1, bovine pancreatic RNase A. Briefly: ITC, pH 6.5, imidazole.
Assay [12] deals with T1, bovine pancreatic RNase A. Briefly: ITC, pH 4.5, piperazine.
In assay [13] the target is T1, bovine pancreatic RNase A. Briefly: ITC, pH 4.74, piperazine.
The target in assay [14] is T1, bovine pancreatic RNase A. Briefly: ITC, pH 7.4, against wild-type VHH.
Assay [15] concerns the target T1, bovine pancreatic RNase A. Briefly: ITC, 25 C, no metal. As to the method:
(§4) Isothermal titration calorimetry (ITC) was used to evaluate the thermodynamic basis for VHH-metal's dual function. […] As expected, titrations of nickel into wild-type anti-RNase A VHH produced no measurable binding.
(§5) ITC experiments were performed using a MicroCal VP-ITC (MicroCal, LLC, Northampton, Mass.). All experiments were performed at 25° C. Proteins were dialyzed against the desired experimental buffer, which included PBS (20 mM NaPhosphate, 150 mM NaCl pH 7.4), TBS (20 mM Tris-HCl, 150 mM NaCl pH 7.4) and TBS-E (20 mM Tris, 150 mM NaCl, 1 mM EDTA, pH 7.4). For direct titration of NiCl₂ into the VHH-metal variant, concentrations were 2 mM and 200 μM for NiCl2 and VHH, respectively. Based on the observed binding constant, this corresponds to a “c-value” of 6.7, which is within the commonly acceptable range for the accurate determination of binding thermodynamics. For competitive titrations, nickel was included in TBS without EDTA at concentrations ranging from 0-10 mM. Competitive VHH/RNase A titration experiments with a “c” value greater than 10 included protein concentrations ranging from 30 μM to 205 μM. Conditions included a 10-fold higher concentration of titrant (VHH).
The source holds these as a separate data set.

In assay [16] the target is T1, bovine pancreatic RNase A. Briefly: ITC, 25 C, pH 7.4, no metal. As to the method: as §1
Assay [17] concerns the target T1, bovine pancreatic RNase A. Briefly: ITC, 25 C, no metal, against wild-type VHH. Here is the method:
as §4, §5

The target of assay [18] is T1, bovine pancreatic RNase A. Briefly: ITC, 25 C, RNase A binding with 1 µM nickel present. As to the method: as §2, §3
Assay [19] addresses T1, bovine pancreatic RNase A. Briefly: ITC, 25 C, RNase A binding with 10 mM nickel present. As to the method:
as §2, §3

The target in assay [20] is T1, bovine pancreatic RNase A. Briefly: ITC, 25 C, RNase A binding with 10 µM nickel present. As to the method:
as §2, §3

In assay [21] the target is T1, bovine pancreatic RNase A. Briefly: ITC, 25 C, RNase A binding with 100 µM nickel present.
For assay [22], the target named is T1, bovine pancreatic RNase A. Briefly: competitive phage ELISA with and without 1 mM metals (Zn2+, Co2+, Ni2+). (In general: An ELISA detects its analyte on a solid surface through an enzyme-linked reagent.)

B1: wild-type anti-RNase A VHH (cAb-RN05) (VHH)
VHH: QVQLVESGGGLVQAGGSLRLSCAASGYAYTYIYMGWFRQAPGKEREGVAAMDSGGGGTLYADSVKGRFTISRDKGKNTVYLQMDSLKPEDTATYYCAAGGGYELRDRTYGQWGQGTQVTVSS
notes: Camelid single-domain antibody; Made in E. coli with an N-terminal hexa-His-TEV tag for ITC; also called VHH-wt; wt-VHH
In the case of B1, in assay [1], the “-TΔS°” value came out at 1.9 kcal/mol, the dissociation constant (Kd) worked out at 19 nM, the “ΔG°” value is -10.5 kcal/mol and the “ΔH°” value is -12.4 kcal/mol. In [2], the “-TΔS°” value came out at 0.9 kcal/mol, binding was characterised by a dissociation constant (Kd) of 16 nM, the “ΔG°” value was -10.6 kcal/mol and the “ΔH°” value is -10.7 kcal/mol.

B2: VHH#24 (pH clone #24) (VHH)
VHH: B1 VHH with A28H, Y29H, Y102H, E103H, R107H
With B2, the dissociation constant (Kd) is 91 nM in assay [3]; 6500 nM in assay [4]; 200 nM in assay [5]; 100 nM in assay [6]; 200 nM in [7]; 6300 nM in assay [8]. Besides, the Kd in assay [9] came to 12000 nM; in assay [11], 400 nM; in assay [13], 75000 nM. Besides, the “-TΔS” value was -8.6 kcal/mol in assay [4]; 0.7 kcal/mol in [5]; -3.8 kcal/mol in assay [6]; -2.5 kcal/mol in assay [7]; -2.4 kcal/mol in assay [9]; 25.4 kcal/mol in [12]. The “-TΔS” value in [13] stood at 6.8 kcal/mol. Besides, the ΔG in assay [4] was -7.07 kcal/mol; in assay [5], -9.07 kcal/mol; in [6], -9.37 kcal/mol; in assay [7], -9.31 kcal/mol; in assay [8], -7.09 kcal/mol; in [9], -7.03 kcal/mol. Also, the values for the ΔG in assay [11], in assay [12] and in assay [13] were -8.73 kcal/mol, -5.11 kcal/mol and -5.62 kcal/mol, respectively. Further, the ΔH is 1.5 kcal/mol in [4]; -4.35 kcal/mol in assay [5]; -9 kcal/mol in assay [6]; -6.84 kcal/mol in assay [7]; 3 kcal/mol in assay [8]; -4.8 kcal/mol in assay [9]. The ΔH in assay [11] was -9.44 kcal/mol; in assay [12] it was -30 kcal/mol; in [13], -12.4 kcal/mol. Further, in assay [10], the “fold decrease of the observed binding constant on decreasing the pH” value was roughly 10000 fold. Further, in assay [14], the “fold difference of binding affinity from the wild-type value” is no more than 5 fold.

B3: VHH-metal (metal sensitive anti-RNase A VHH) (VHH)
VHH: B1 VHH with A28P, Y29H, T30P, I32L, Y33H, E103Q, Q111H
notes: also called Metal-VHH; metal clone VHH
Regarding B3, the Kd came to 155 nM in assay [15]; 157 nM in assay [16]; 160 nM in assay [18]; 5640 nM in assay [2]; 34000 nM in assay [19]; 219 nM in assay [20]. In assay [21], the Kd was determined as 900 nM. Also, the “-TΔS°” value is 9 kcal/mol in assay [16]; 8 kcal/mol in assay [18]; 0.09 kcal/mol in assay [2]; 1.3 kcal/mol in [19]; 3.6 kcal/mol in [20]; -1 kcal/mol in assay [21]. In addition, the “ΔG°” value in assay [16] was -9.3 kcal/mol; in [18] it was -9.27 kcal/mol; in assay [2], -7.13 kcal/mol; in assay [19], -6.07 kcal/mol; in assay [20] it was -9.1 kcal/mol; in assay [21], -8.27 kcal/mol. The “ΔH°” value in [16] was -17.8 kcal/mol; in assay [18], -17.2 kcal/mol; in [2], -7.2 kcal/mol; in [19], -7.3 kcal/mol; in assay [20], -12.7 kcal/mol; in [21], -7 kcal/mol. In assay [17], the “fold decrease in binding affinity against wild type” value is roughly 8 fold. In addition, in assay [17], the “ΔΔG°” value was determined as 1.2 kcal/mol. The “fold change in IC50” value in assay [22] came to 1000 fold.
